Source: patent US20240382610A1 (TALLAC THERAPEUTICS, published 2024)

T1: Human nectin-4 ECD-6His (TNT-175) (human, UniProt Q96NY8 32-349)
T1 construct: the entry holds the extracellular domain with the C-terminal 6His tag
T1 sequence: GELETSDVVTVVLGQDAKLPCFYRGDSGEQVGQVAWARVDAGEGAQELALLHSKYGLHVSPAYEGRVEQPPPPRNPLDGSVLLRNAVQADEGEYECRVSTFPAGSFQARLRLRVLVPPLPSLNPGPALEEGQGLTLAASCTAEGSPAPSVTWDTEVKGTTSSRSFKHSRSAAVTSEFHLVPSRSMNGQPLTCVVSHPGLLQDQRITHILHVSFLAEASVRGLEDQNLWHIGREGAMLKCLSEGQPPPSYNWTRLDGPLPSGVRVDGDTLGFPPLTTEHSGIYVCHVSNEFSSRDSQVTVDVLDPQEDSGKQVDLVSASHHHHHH

T2: Human nectin-4-IgV-6His (TNT-252) (human, UniProt Q96NY8 32-147)
T2 construct: entry includes the 6His tag
T2 sequence: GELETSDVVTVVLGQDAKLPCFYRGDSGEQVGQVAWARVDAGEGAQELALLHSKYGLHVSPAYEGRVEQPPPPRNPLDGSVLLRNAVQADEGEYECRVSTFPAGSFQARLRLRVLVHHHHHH

T3: Mouse nectin-4 ECD-6His (TNT-250) (mouse, UniProt Q8R007 31-347)
T3 construct: entry includes the 6His tag; also called mouse nectin-4-LCD
T3 sequence: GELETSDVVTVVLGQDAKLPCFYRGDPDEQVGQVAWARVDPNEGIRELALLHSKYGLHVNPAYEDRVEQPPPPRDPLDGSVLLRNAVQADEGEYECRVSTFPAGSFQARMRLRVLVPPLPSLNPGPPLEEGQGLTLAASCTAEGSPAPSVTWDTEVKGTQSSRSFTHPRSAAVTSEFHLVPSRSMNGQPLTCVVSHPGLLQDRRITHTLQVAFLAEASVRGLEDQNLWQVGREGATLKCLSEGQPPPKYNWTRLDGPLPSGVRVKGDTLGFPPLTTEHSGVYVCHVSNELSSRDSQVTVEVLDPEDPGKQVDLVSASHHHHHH

T4: Cyno nectin-4 ECD-6His (TNT-255) (cynomolgus, UniProt Q96NY8 32-349 (human entry))
T4 construct: entry includes the 6His tag
T4 chain: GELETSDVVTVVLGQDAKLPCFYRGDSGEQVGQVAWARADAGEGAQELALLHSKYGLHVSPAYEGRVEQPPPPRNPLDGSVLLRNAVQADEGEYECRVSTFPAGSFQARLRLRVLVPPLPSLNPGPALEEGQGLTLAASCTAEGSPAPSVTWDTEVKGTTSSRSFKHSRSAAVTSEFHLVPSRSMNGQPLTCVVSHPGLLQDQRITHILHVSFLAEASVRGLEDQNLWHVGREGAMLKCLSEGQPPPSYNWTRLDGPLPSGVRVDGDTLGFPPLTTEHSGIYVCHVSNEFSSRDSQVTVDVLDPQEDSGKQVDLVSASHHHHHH


Tests used:
[1] = target: T1, Human nectin-4 ECD-6His (TNT-175); test: SPR Biacore 8K
Description: (§1) Further testing of select nectin-4 antibodies to human, mouse and cyno nectin-4. Additional assessment of the nectin-4 antibodies was performed to measure binding to human, mouse, and cynomolgus nectin-4. Biacore 8K (Cytiva, Marlborough, MA) was used to further characterize binding of four of the nectin-4 monoclonal antibodies.
(§2) All experiments were performed at 25° C. temperature and in HBS-EP+ run buffer (10 mM HEPES, pH 7.4, 150 mM NaCl, 3 mM EDTA, 0.05% Tween-20). The antibodies were captured or immobilized on a Biacore chip either through amine-coupling method on a CM5 or captured by ProteinA chip or captured by anti-mouse polyclonal antibody or anti-human polyclonal antibody. […] The data were processed and analyzed in Biacore Insight Evaluation Software using double-reference subtraction of the data and then fitted to a simple Langmuir binding model using global kinetic rate constants for association (Kₐ), dissociation (Kd), and Rₘₐₓ values per sample. Fit quality was determined by inspection of the residuals and of statistical T values and the equilibrium dissociation (or affinity) constant was deduced by the ratio of the kinetic rate constants. KD=Kd/Kₐ.

[2] = target: T2, Human nectin-4-IgV-6His (TNT-252); test: SPR Biacore 8K
Description: as §1, §2

[3] = target: T3, Mouse nectin-4 ECD-6His (TNT-250); test: SPR Biacore 8K
Description: as §1, §2

[4] = target: T4, Cyno nectin-4 ECD-6His (TNT-255); test: SPR Biacore 8K
Description: as §1, §2

[5] = target: T1, Human nectin-4 ECD-6His (TNT-175); test: SPR Biacore 8K, mAb on protein A
[6] = target: T1, Human nectin-4 ECD-6His (TNT-175); test: SPR Biacore 8K, mAb on protein A; remark: listed apart in the source
Description: (§3) The running buffer was 10 mM HEPES, pH 7.4, 150 mM NaCl, 3 mM EDTA, 0.05% (v/v) Surfactant P20 (HBS-EP+). […] The nectin-4 analytes were injected in either single-cycle kinetics or multi-cycle kinetics mode at nominal starting concentrations of 300 nM or 900 nM with 3-fold serial dilutions. Association times were monitored for 120 s, and dissociation times were monitored 1800 s at 30 μL/min flow rate. The surfaces were regenerated with 10 mM glycine at pH1.7 or 75 mM phosphoric acid at pH1.6 for two pulses of 15 s at 30 μL/min flow rate.
(§4) The data were processed and analyzed with Biacore 8K Evaluation Software Version 3.0.12.15655 (Cytiva, Global Life Sciences Solutions USA LLC, Marlborough, MA). […] The responses from the nearest buffer blank injection were then subtracted from the reference subtracted data (2-1) to yield double-referenced data. These double-reference data were fit to a simple 1:1 Langmuir binding model with mass transport to determine the apparent association (ka) and dissociation rate constants (kd). The apparent equilibrium dissociation constant or affinity constant was then calculated based on their ratio as (KD=kd/ka).

[7] = target: T2, Human nectin-4-IgV-6His (TNT-252); test: SPR Biacore 8K, mAb on protein A
Description: as §3, §4

[8] = target: T3, Mouse nectin-4 ECD-6His (TNT-250); test: SPR Biacore 8K, mAb on protein A
Description: as §3, §4

[9] = target: T4, Cyno nectin-4 ECD-6His (TNT-255); test: SPR Biacore 8K, mAb on protein A
Description: as §3, §4

Kd [1] | Kd [2] | Kd [3] | Kd [4] | Kd [5] | Kd [6] | Kd [7] | Kd [8] | Kd [9] | binding result [8] | Binder
1.5 nM | 1.8 nM | 6 nM | 4.2 nM | 1 nM | 1.37 nM | 1.77 nM | 5.07 nM | 4.19 nM | – | TNT-207 (antibody, human IgG1, kappa) heavy: not shown light: DIQMTQSPSSLSASVGDRVTITCRASQGISNYLAWFQQKPGKAPKSLISAASSLQSGVPSRFSGSGSGTDFTLTISSLQPEDFATYYCLQHDSFPITFGGGTKLEIKRTVAAPSVFIFPPSDEQLKSGTASVVCLLNNFYPREAKVQWKVDNALQSGNSQESVTEQDSKDSTYSLSSTLTLSKADYEKHKVYACEVTHQGLSSPVTKSFNRGEC
8 nM | 10 nM | – | 40 nM | – | 8.69 nM | 9.88 nM | – | 40.5 nM | binds | TNT-212 (antibody, human IgG1, kappa, also called TNT-154) heavy: not shown light: DIQMTQSPSSVSASVGDRVTITCRASQGISGWLAWYQQKPGKAPKFLIYAASTLQSGVPSRFSGSGSGTDFTLTISSLQPEDFATYYCQQANSFPPTFGGGTKVEIKRTVAAPSVFIFPPSDEQLKSGTASVVCLLNNFYPREAKVQWKVDNALQSGNSQESVTEQDSKDSTYSLSSTLTLSKADYEKHKVYACEVTHQGLSSPVTKSFNRGEC
70 nM | 138 nM | 115 nM | 172 nM | – | 101 nM | 138 nM | 196 nM | 172 nM | – | TNT-203 (antibody, human IgG1, kappa) heavy: not shown light: EIVLTQSPATLSLSPGERATLSCRASQSVSSYLAWYQQKPGQAPRLLIYDASNRATGIPARFSGSGSGTDFTLTISSLQAEDFATYYCQQSYSTRFGGGTKVEIKRTVAAPSVFIFPPSDEQLKSGTASVVCLLNNFYPREAKVQWKVDNALQSGNSQESVTEQDSKDSTYSLSSTLTLSKADYEKHKVYACEVTHQGLSSPVTKSFNRGEC
